Source: patent publication US20210309747A1 (I MAB BIOPHARMA US, published 2021)

B1: B07 (antibody, V domains shown)
VH: EVQLLESGGGLVQPGGSLRLSCAASGFTFSSYWMSWVRQAPGKGLEWVANIKQDGSEKYYVDSVKGRFTISRDNAKNSLYLQMNSLRAEDTAVYYCARVCGYDDAFDIWGQGTMVTVSA
VL: NIQMTHSPSTLSASVGDRVTISCRASQSISTWLAWYQQKPGKAPKLLIYKASSLESGVPSRFSGSGSGTDFTLTISSLQPEDFATYYCQQSYSIPLTFGGGTKVEIK
notes: Fab phage clone converted into full-length IgG; also called 67C1-5
B2: B10 (antibody, V domains shown)
VH: QVQLVQSGGGLVQPGGSLRLSCAASGFTFSSYWMSWVRQAPGKGLEWVANIKQDGSEKYYVDSVKGRFTISRDNAKNSLFLQMNSLGAEDTAMYYCARATVKYGGDDAFDIWGQGTMVTVSA
VL: NIQLTQSPSTLSASVGDRVTITCRASQSISDWLAWYQQKPGKAPNLLIYKASSLESGVPSRFSGSGSGTDFTLTISSLQPEDFATYYCQQSFSTPFTFGPGTKVDIK
notes: Fab phage clone converted into full-length IgG; also called 67C3-14
B3: B06-01 (antibody, V domains shown)
VH: not shown
VL: DIQMTQSPSSLSASVGDRVTITCRASQGISSYLAWYQQKPGKAPKLLIYAASTLQSGVPDRFSGSGSGTDFTLTISSLQAEDVAVYYCQQYLSVPYTFGQGTKVEIK
B4: B06-03 (antibody, V domains shown)
VH: not shown
VL: DIQMTQSPSSLSASVGDRVTITCRASQGISSYLAWYQQKPGKAPKLLIYAASTLQSGVPDRFSGSGSGTDFTLTISSLQAEDVAVYYCQQYLSVPYTFGQGTKVEIK
B5: B06-02 (antibody, V domains shown)
VH: not shown
VL: DIQMTQSPSSLSASVGDRVTITCRASQGISSYLAWYQQKPGKAPKLLIYAASTLQSGVPDRFSGSGSGTDFTLTISSLQAEDVAVYYCQQYLSVPYTFGQGTKVEIK
B6: B16-01 (antibody, V domains shown)
VH: QVQLLDSGGGLVQPGGSLRLSCAASGFTFSSYWMSWVRQAPGKGLEWVANIKQDGSEKYYVDSVKGRFTISRDNAKNSLYLQMNSLRAEDTAVYYCARVALWDDAFDIWGQGTMVTVSS
VL: DIQMTQSPSSLSASVGDRVTITCRASQSISSWLAWYQQKPGKAPKLLIYKASSLESGVPSRFSGSGSGTEFTLTISSLQPDDFATYYCQHSNSLPLTFGGGTKVEIK
B7: B12-02 (antibody, V domains shown)
VH: QVQLLESGGGLVQPGGSLRLSCAASGFTFSSYWMSWVRQAPGKGLEWVANIKQEGSEKYYVDSVKGRFTISRDNAKNSLYLQMNSLRAEDTAVYYCARVALWDDAFDIWGQGTMVTVSS
VL: DIQMTQSPSTLSASVGDRVIITCRASRGISSWLAWYQQKPGKAPNLLISKASSLESGVPSRFSGSGSGTDFTLTISSLQPEDFATYYCQQSSSIPLTFGGGTKVEIK
B8: B12-03 (antibody, V domains shown)
VH: QVQLLESGGGLVQPGGSLRLSCAASGFTFSSYWMSWVRQAPGKGLEWVANIKQEGSEKYYVDAVKGRFTISRDNAKNSLYLQMNSLRAEDTAVYYCARVALWDDAFDIWGQGTMVTVSS
VL: DIQMTQSPSTLSASVGDRVIITCRASRGISSWLAWYQQKPGKAPNLLISKASSLESGVPSRFSGSGSGTDFTLTISSLQPEDFATYYCQQSSSIPLTFGGGTKVEIK
B9: B11 (antibody, V domains shown)
VH: EVQLLESGAEVKKPGSSVKVSCKASGGTFSSYAISWVRQAPGQGLEWMGGIIPIFGTANYAQKFQGRVTITADESTSTAYMELSSLRSEDTAVYYCARRTDSYGYSDAFDIWGQGTMVTVSA
VL: not shown
notes: Fab phage clone converted into full-length IgG; also called 67C3-17
B10: B01 (antibody, V domains shown)
VH: EVQLLESGGGLVQPGGSLRLSCAASGFTLSSHWLAWVRQAPGKGLEWVASIHQDASLEFYVDSVEGRFTISRDNSKRSLFLQMNNLRVEDTAVYYCARGDNQFDNWGQGTLVTVSA
VL: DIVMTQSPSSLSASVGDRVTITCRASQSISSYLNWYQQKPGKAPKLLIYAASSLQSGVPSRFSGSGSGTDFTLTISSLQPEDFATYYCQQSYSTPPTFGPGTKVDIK
notes: Fab phage clone converted into full-length IgG; also called 67A3-5
B11: B02 (antibody, V domains shown)
VH: QVQLLESGGGLVKPGGSLRLSCAASGFTFSTYIINWVRQAPGKGLEWVSSVAASGDYAYYANSVKGRFTISRDNSKNTLYLQMNSLRAEDTAVYYCARDRSSGYYLSPNDAFDIWGQGTMVTVSA
VL: NIQLTQSPSSLSASLGDRVTITCRASQTISRYLNWYQQKPGKAPELLIYATSSLQSGVPSRFSGSGSGTDFTLTISSLQPEDFATYYCQQSYSTPTTFGGGTKVEIK
notes: Fab phage clone converted into full-length IgG; also called 67A2-20
B12: B13 (antibody, V domains shown)
VH: EVQLLESGGGLVQPGGSLRLSCAASGFTFSSYWMSWVRQAPGKGLEWVANIKQDGSEKYYVDSVKGRFTISRDNAKNSLYLQMNSLRAEDTAVYFCARSTVKYGADDAFDIWGQGAMVTVSA
VL: NIQMTQSPSTLSASVGDRVTITCRASQSISSWLAWYQQKPGKAPKLLIYKASSLQSGVPSRFSGSGSGTDFTLTISSLQPEDFATYYCQQSYSTPFTFGPGTKVDIK
notes: Fab phage clone converted into full-length IgG; also called 67C1-10
B13: B03 (antibody, V domains shown)
VH: EVQLLESGGGLVQPGGSLRLSCAASGFSFSSYWMSWVRQAPGKGLEWVANIKEDGSEKYYVDSVKGRFTISRDNAKNSLYLQMNSLRAEDTAVYYCARVVRFNDAFDIWGQGTMVTVSA
VL: DIQLTQSPSTLSASVGDRVTITCRASQSIDTWLAWYQQKPGKAPKLLIHNASTLKSGVSSRFSGSGSGTDFTLTISSLQPEDFATYYCQQSYSTPLTFGGGTKVEIK
notes: Fab phage clone converted into full-length IgG; also called 67A3-14
B14: B14 (antibody, V domains shown)
VH: EVQLLESGGGEVQPGRSLRLSCAASGFSFSSYWMSWVRQAPGKGLEWVANIKEDGSEKYYVDSVKGRFTISRDNAKNSLYLQMNSLRAEDTAVYYCARVVRFNDAFDIWGQGTMVTVSA
VL: NIQLTQSPSSVSASVGDRVTITCRASQGISSWLAWYQQKPGKAPKLLIYAASSLQSGVPSRFSGSGSGTDFTLTISSLQPEDFATYYCQQANSFPFTFGPGTKVDIK
notes: Fab phage clone converted into full-length IgG; also called 67C2-19
B15: B09 (antibody, V domains shown)
VH: EVQLLESGGGLVQPGGSLRLSCAASGFTFSSYWMSWVRQAPGKGLEWVANIKQDGSEKYYVDSVKGRFTISRDNAKNSLYLQMNSLRAEDTAVYYCAREDFWSGYQDVWGQGTMVTVSA
VL: not shown
notes: Fab phage clone converted into full-length IgG; also called 67C2-9
B16: B05 (antibody, V domains shown)
VH: EVQLVETGRGLVQPGRSLRLSCAASGFTFSSYWMSWVRQAPGKGLEWVANIKQDGSEKYYVDSVKGRFTISRDNAKNSLYLQMNSLRAEDTAVYYCARGGYYGDDDAFDIWGQGTMVTVSA
VL: NIQMTQSPSTLSASVGDRVTITCRASQSISSWLAWYQQKPGKAPKLLIYKASSLESGVPSRFSGSGSGTEFTLTISSLQPEDFATYYCQQTYSLPLTFGQGTRVGIK
notes: Fab phage clone converted into full-length IgG; also called 67A3-21
B17: B08 (antibody, V domains shown)
VH: EVQLLESGGGLVQPGGSLRLSCVGSGFTFSDHYMDWVRQAPGKGLEWVSSISSSSSYIYYADSVKGRFTISRDNAKNSLYLQMNSLRAEDTAVYYCARGRVGATNRFGMDVWGQGTMVTVSA
VL: DIQMIQSPSSVSASVGDRVTITCRASESISRWLAWYQQKPGKAPKLLIYAASNLESGVPSRFSGSGSGTEFTLTISSLQPEDFATYYCQQAESFPSFGQGTRLEIK
notes: Fab phage clone converted into full-length IgG; also called 67C2-1
B18: B17 (antibody, V domains shown)
VH: EVQLLESGGGLVQPGGSLRLSCAASGFTFSSNAMSWVRQAPGKGLEWVSAVGGGGVNTYYADSVKGRFTISRDNSKNTLYLQMNSLRAEDTAVYYCAKGEKGYSNSCIDYWGQGTLVTVSA
VL: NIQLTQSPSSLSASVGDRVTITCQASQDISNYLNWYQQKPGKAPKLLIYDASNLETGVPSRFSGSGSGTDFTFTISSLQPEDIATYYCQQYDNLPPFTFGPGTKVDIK
notes: Fab phage clone converted into full-length IgG; also called 67C2-23

Target: T1, human PD-L1 on Raji cells (human, UniProt Q9NZQ7 19-290)
Assay: cell-based or functional assay

T1 sequence (Q9NZQ7 19-290): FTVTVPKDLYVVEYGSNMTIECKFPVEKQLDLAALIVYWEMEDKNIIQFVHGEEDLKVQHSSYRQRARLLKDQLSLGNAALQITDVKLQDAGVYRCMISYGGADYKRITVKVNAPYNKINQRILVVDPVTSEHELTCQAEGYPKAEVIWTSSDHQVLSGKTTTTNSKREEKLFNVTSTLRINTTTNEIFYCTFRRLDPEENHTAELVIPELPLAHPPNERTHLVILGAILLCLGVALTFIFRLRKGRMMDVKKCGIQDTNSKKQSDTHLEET

Question: With B1 as the binder, how does the “EC50 (NF-AT-luciferase RLU)” value read?
Answer: Its value is 1.02 nM.

Question: For B2, which “EC50 (NF-AT-luciferase RLU)” value is on record?
Answer: The value was 2.22 nM.

Target: T1, human PD-L1 on Raji cells
Assay: cell-based or functional assay
Remark: another data set of the same source

Question: B3 was tested. Which “EC50 (NF-AT-luciferase RLU)” value did it give?
Answer: The value was 0.383 nM.

Question: Which “EC50 (NF-AT-luciferase RLU)” value does the source give for B4 here?
Answer: Its value is 0.907 nM.

Question: How did the “EC50 (NF-AT-luciferase RLU)” value turn out when B5 was run?
Answer: The value was 0.97 nM.

Question: Which “EC50 (NF-AT-luciferase RLU)” value does the source give for B6 here?
Answer: The value was 0.611 nM.

Question: With B7 as the binder, how does the “EC50 (NF-AT-luciferase RLU)” value read?
Answer: The value was 0.497 nM.

Question: With B8 as the binder, how does the “EC50 (NF-AT-luciferase RLU)” value read?
Answer: The value was 0.517 nM.

Target: T2, recombinant human PD-L1 (Sino Biological, Cat#: 10084-H08H) (human, UniProt Q9NZQ7 19-238)
T2 construct: Bought protein; also called human PD-L1 protein
Assay: ELISA, plate coated with human PD-L1 at 1 ug/ml, detection with goat anti-human IgG-HRP, OD450
Description: To evaluate antigen binding activity, the antibodies were subjected to ELISA test. Briefly, microtiter plates were coated with human PD-L1 protein at 1 μg/ml in PBS, 100 μl/well at 4° C. overnight, then blocked with 100 μl/well of 1% BSA. 4-fold dilutions of humanized antibodies starting from 10 μg/ml were added to each well and incubated for 1-2 hours at RT. The plates were washed with PBS/Tween and then incubate with goat-anti-human IgG antibody conjugated with Horse Radish Peroxidase (HRP) for 1 hour at RT. After washing, the plates were developed with TMB substrate and analyzed by spectrophotometer at OD 450 nm.

T2 sequence (Q9NZQ7 19-238 limits assumed): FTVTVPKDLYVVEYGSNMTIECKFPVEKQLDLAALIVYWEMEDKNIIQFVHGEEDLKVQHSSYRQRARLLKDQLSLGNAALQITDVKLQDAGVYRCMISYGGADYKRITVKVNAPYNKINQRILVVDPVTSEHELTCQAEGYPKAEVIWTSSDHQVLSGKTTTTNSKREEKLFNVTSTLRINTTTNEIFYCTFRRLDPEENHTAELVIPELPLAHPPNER

Question: With B9 as the binder, how does the EC50 read?
Answer: The EC50 was 0.294 nM.

Question: With B10 as the binder, how does the EC50 read?
Answer: The EC50 was 18 nM.

Question: For B11, which EC50 is on record?
Answer: The EC50 was 15.5 nM.

Question: With B1 as the binder, how does the EC50 read?
Answer: The EC50 was 0.124 nM.

Question: B12 was tested. Which EC50 did it give?
Answer: Its EC50 is 0.13 nM.

Question: For B2, which EC50 is on record?
Answer: Its EC50 is 0.31 nM.

Question: How did the EC50 turn out when B13 was run?
Answer: Its EC50 is 1.28 nM.

Question: How did the EC50 turn out when B14 was run?
Answer: The EC50 was 0.222 nM.

Question: For B15, which EC50 is on record?
Answer: The EC50 was 14.3 nM.

Question: B16 was tested. Which EC50 did it give?
Answer: The EC50 was 0.625 nM.

Question: With B17 as the binder, how does the EC50 read?
Answer: The EC50 was 1.63 nM.

Question: With B18 as the binder, how does the EC50 read?
Answer: The EC50 was 36.1 nM.
